Measurements: the supplement of paper PMC9233669
Fewer inactive variants are shown than the library holds.

Experiments:
biotinyl-Phe-oxazolone = assay: self-aminoacylation, catalytic enhancement (BFO) (fold over background); higher = more active; k-Seq, kA / k0A0; sequences stand for … in GGGAAUGGAUCCACAUCUACGAAUUC…UUCACUGCAGACUUGACGAAGCUG
In short: (§1)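 Mutagenized RNA pools with a 21-nt variable region (0.43 μM) were reacted with each biotinyl-aminoacyl-oxazolone at 2–1250 μM for 90 minutes at room temperature, in 50 μL HEPES/NaCl/KCl/MgCl2/CaCl2 buffer containing 5% acetonitrile at pH 6.9–7.0. RNA captured on streptavidin was quantified by triplicate qPCR and by Illumina sequencing. The fraction reacted for each sequence was fit to a pseudo-first-order model with bootstrapping, and catalytic enhancement is the median kA divided by the uncatalyzed rate, taken as the low-activity peak of a bimodal Gaussian fit.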

biotinyl-Ile-oxazolone = assay: self-aminoacylation, catalytic enhancement (BIO) (fold over background); higher = more active; k-Seq, kA / k0A0; sequences stand for … in GGGAAUGGAUCCACAUCUACGAAUUC…UUCACUGCAGACUUGACGAAGCUG
In short: as §1

biotinyl-Met-oxazolone = assay: self-aminoacylation, catalytic enhancement (BMO) (fold over background); higher = more active; k-Seq, kA / k0A0; sequences stand for … in GGGAAUGGAUCCACAUCUACGAAUUC…UUCACUGCAGACUUGACGAAGCUG
In short: as §1

biotinyl-Val-oxazolone = assay: self-aminoacylation, catalytic enhancement (BVO) (fold over background); higher = more active; k-Seq, kA / k0A0; sequences stand for … in GGGAAUGGAUCCACAUCUACGAAUUC…UUCACUGCAGACUUGACGAAGCUG
In short: as §1

biotinyl-Leu-oxazolone = assay: self-aminoacylation, catalytic enhancement (BLO) (fold over background); higher = more active; k-Seq, kA / k0A0; sequences stand for … in GGGAAUGGAUCCACAUCUACGAAUUC…UUCACUGCAGACUUGACGAAGCUG
In short: as §1

biotinyl-Trp-oxazolone = assay: self-aminoacylation, catalytic enhancement (BWO) (fold over background); higher = more active; k-Seq, kA / k0A0; sequences stand for … in GGGAAUGGAUCCACAUCUACGAAUUC…UUCACUGCAGACUUGACGAAGCUG
In short: as §1

Sequence | self-aminoacylation (biotinyl-Phe-oxazolone) | self-aminoacylation (biotinyl-Ile-oxazolone) | self-aminoacylation (biotinyl-Met-oxazolone) | self-aminoacylation (biotinyl-Val-oxazolone) | self-aminoacylation (biotinyl-Leu-oxazolone) | self-aminoacylation (biotinyl-Trp-oxazolone)
CCUCACUUCAAGCAAUCGGUC [Fam1B.1 aminoacylation ribozyme variant] | 55.7 | 1.07 | 1.07 | 1.21 | 1.58 | 22.4
AUUACCCUGAUCAUGGAGUGA [Fam2.1 aminoacylation ribozyme variant] | 53.6 | 4.86 | 10.8 | 4.92 | 10.5 | 13
CCAGACUUCAAGCAAUCAGUC [Fam1B.1 aminoacylation ribozyme variant] | 12.6 | 1.04 | 0.826 | 0.837 | 1.03 | 5.08
AUUCAUCUAGGUCUUCGGGUG [Fam2.2 aminoacylation ribozyme variant] | 37.4 | 3.75 | 4.49 | 3.66 | 6.24 | 4.84
CCACACUUCAAGGAAUAGGUC [Fam1B.1 aminoacylation ribozyme variant] | 0.627 | 0.526 | 0.489 | 0.514 | 0.478 | 0.5
AAGUUUGCUAAUACUCGCCAG [Fam3.1 aminoacylation ribozyme variant] | 0.993 | 0.916 | 0.629 | 0.836 | 0.655 | 0.773
AUUACCCUGGGCAUGGAGUGA [Fam2.1 aminoacylation ribozyme variant] | 40.7 | 3.35 | 7.29 | 3.13 | 8.39 | 8.01
CCACCCUUCAAGCACUCGGUC [Fam1B.1 aminoacylation ribozyme variant] | 0.826 | 1.54 | 1.14 | 1.68 | 1.15 | 1.46
AUGACCCUGGUCAUCGCGUGA [Fam2.1 aminoacylation ribozyme variant] | 126 | 7.46 | 16 | 7.53 | 17.1 | 19.7
AUUACCCUGGUCAUCGAGUGA [Fam2.1 aminoacylation ribozyme variant] | 657 | 34.6 | 91.3 | 37.9 | 86.9 | 99.1
CCACCCUUUAAGCAAUCGGUC [Fam1B.1 aminoacylation ribozyme variant] | 1.34 | 1.16 | 0.892 | 1.21 | 0.983 | 0.888
CCAAACUUCAAGCGAUCGGUC [Fam1B.1 aminoacylation ribozyme variant] | 1.09 | 1.1 | 1.11 | 1.35 | 1.32 | 1.25
AUUCAUCUAGGACAUCGGGUG [Fam2.2 aminoacylation ribozyme variant] | 17.3 | 2.75 | 3.39 | 2.74 | 3.59 | 3.07
AAAUUUGCAAAUAGUCGCAAG [Fam3.1 aminoacylation ribozyme variant] | 2.27 | 1.9 | 1.35 | 1.37 | 1.82 | 1.82
CUACAUCAAACAAUCUGUCUG [Fam1A.1 aminoacylation ribozyme variant] | 0.795 | 0.722 | 0.533 | 0.736 | 0.624 | 0.497
AUUACCCGGGUCAUCGAGUCA [Fam2.1 aminoacylation ribozyme variant] | 1.05 | 1.29 | 1.32 | 1.16 | 1.22 | 0.967
AUCACCCUGGUCCUCGAGUGA [Fam2.1 aminoacylation ribozyme variant] | 51.6 | 4.01 | 6.62 | 4.54 | 8.29 | 7.28
AUUACCCUCGUCUUCGAGUGA [Fam2.1 aminoacylation ribozyme variant] | 29.4 | 2.8 | 5.15 | 3.24 | 5.17 | 7.17
AUUACCCUGAUCAUCUAGUGA [Fam2.1 aminoacylation ribozyme variant] | 56.9 | 5.67 | 13.5 | 6.47 | 11.2 | 15.6
CUACUUCAACGAAUCGGUCUG [Fam1A.1 aminoacylation ribozyme variant] | 4.58 | 0.847 | 0.753 | 0.833 | 1.02 | 3.92
AUUCACCUUCGUCAUCGGGUG [Fam2.2 aminoacylation ribozyme variant] | 14.9 | 2.12 | 2.3 | 2.38 | 3.28 | 2.79
AGUCACAUAGGUCAUCGGGUG [Fam2.2 aminoacylation ribozyme variant] | 63.6 | 7.04 | 8.54 | 6.38 | 10.2 | 9.51
AUUCACCUAGGUCAUCGGAGG [Fam2.2 aminoacylation ribozyme variant] | 0.759 | 0.829 | 0.898 | 1.03 | 0.991 | 0.621
AUUCACCUAGGGCACCGGGUG [Fam2.2 aminoacylation ribozyme variant] | 23.3 | 3.58 | 4.01 | 3.88 | 4.66 | 3.62
UUUCCCCUAGGUCAUCGGGUG [Fam2.2 aminoacylation ribozyme variant] | 96.8 | 6.97 | 11.8 | 6.87 | 15.1 | 10.4
AAGUUUGCAAAUAGUAGCAAG [Fam3.1 aminoacylation ribozyme variant] | 1.62 | 1.27 | 1.03 | 0.939 | 1.07 | 0.923

Sequence | self-aminoacylation (biotinyl-Phe-oxazolone) | self-aminoacylation (biotinyl-Ile-oxazolone) | self-aminoacylation (biotinyl-Met-oxazolone) | self-aminoacylation (biotinyl-Val-oxazolone) | self-aminoacylation (biotinyl-Leu-oxazolone) | self-aminoacylation (biotinyl-Trp-oxazolone)
CAACUUCAACCAAUCGGUCUG [Fam1A.1 aminoacylation ribozyme variant] | 66.9 | 1.37 | 1.67 | 1.61 | 2.41 | 33.2
UUUCACCGAGGUCAUCGGGUG [Fam2.2 aminoacylation ribozyme variant] | 44.3 | 4.52 | 7.19 | 5.17 | 6.07 | 6.08
AAUUUUGCUAAUACUCGCAAG [Fam3.1 aminoacylation ribozyme variant] | 1.5 | 1.5 | 1.01 | 1.35 | 1.47 | 1.03
AAUCACCUAGGUCAUCGGGUG [Fam2.2 aminoacylation ribozyme variant] | 42.9 | 5.67 | 7.92 | 5.65 | 9.15 | 8.58
CUACUUCGAACAAUCGGUGUG [Fam1A.1 aminoacylation ribozyme variant] | 0.861 | 1.03 | 1.13 | 0.999 | 1.26 | 1.25
AUAACGCUGGUCAUCGAGUGA [Fam2.1 aminoacylation ribozyme variant] | 15 | 3.06 | 4.6 | 2.76 | 4.06 | 5.24
AUAACCCUGGUCUUCGAGUGA [Fam2.1 aminoacylation ribozyme variant] | 17.7 | 2.9 | 5.08 | 2.71 | 5.23 | 6.89
CCACACUUCAAGCCAUGGGUC [Fam1B.1 aminoacylation ribozyme variant] | 0.678 | 1.15 | 1.13 | 0.952 | 1.14 | 0.675
CCAAACUUCAAGCAAACGGUC [Fam1B.1 aminoacylation ribozyme variant] | 0.911 | 0.832 | 0.699 | 0.846 | 0.607 | 0.811
GUACUUCAAACACUCGGUCUG [Fam1A.1 aminoacylation ribozyme variant] | 5.9 | 1.5 | 1.31 | 1.3 | 1.64 | 1.91
CUACUUCAAACACUCAGUCUG [Fam1A.1 aminoacylation ribozyme variant] | 1.02 | 0.798 | 0.727 | 0.732 | 0.685 | 0.601
CUUCUUCAGACAAUCGGUCUG [Fam1A.1 aminoacylation ribozyme variant] | 0.958 | 0.76 | 0.651 | 0.751 | 0.606 | 0.559
GCACACCUCAAGCAAUCGGUC [Fam1B.1 aminoacylation ribozyme variant] | 2.09 | 1.4 | 1.3 | 1.73 | 1.23 | 2.46
CUACUACAAACCAUCGGUCUG [Fam1A.1 aminoacylation ribozyme variant] | 0.739 | 0.837 | 0.845 | 0.822 | 0.702 | 0.765
GAGUUUGCUAAUAGGCGCAAG [Fam3.1 aminoacylation ribozyme variant] | 1.4 | 0.982 | 0.961 | 0.836 | 1.02 | 1.35
AAUCACCUAGGUCAUCGGUUG [Fam2.2 aminoacylation ribozyme variant] | 5.05 | 1.44 | 1.74 | 1.29 | 1.66 | 1.69
CUACUUCAGACACUCGGUCUG [Fam1A.1 aminoacylation ribozyme variant] | 1.77 | 1.2 | 1.49 | 1.54 | 1.52 | 1.03
CUACAUCAAACACUCGGUCUG [Fam1A.1 aminoacylation ribozyme variant] | 3.01 | 1.03 | 1.03 | 1.26 | 0.978 | 1.11
AAGUCUGCUAAUAGACGCAAG [Fam3.1 aminoacylation ribozyme variant] | 1.01 | 0.692 | 0.669 | 0.715 | 0.771 | 0.653
AUUCACCUAGGUGAUCGGGUA [Fam2.2 aminoacylation ribozyme variant] | 9.83 | 2.67 | 3.18 | 2.48 | 3.14 | 3.59
AAUACCCUGGUCAUCGAGGGA [Fam2.1 aminoacylation ribozyme variant] | 1.13 | 1.51 | 1.18 | 1.94 | 1.58 | 1.85
AAGUGUGCUAAUAGUCGUAAG [Fam3.1 aminoacylation ribozyme variant] | 28 | 1.54 | 1.69 | 1.12 | 0.899 | 7.72
CUACUGCAAACAAUCGGUCUC [Fam1A.1 aminoacylation ribozyme variant] | 0.785 | 0.855 | 0.916 | 0.885 | 0.716 | 0.681
AGUACCCUGGUCAUCGAGGGA [Fam2.1 aminoacylation ribozyme variant] | 1.82 | 1.43 | 1.22 | 1.47 | 2.21 | 2.91
AUUACCCGCGUCAUCGAGUGA [Fam2.1 aminoacylation ribozyme variant] | 24.9 | 2.37 | 4.55 | 2.8 | 4.6 | 5.55
